Data published in patent US20230340128A1.

Experiments:
[1] = target: human mesothelin (MSLN) (human) (UniProt Q13421); test: BLI (Octet), multiple concentrations, bsAb in 1+1 Fab-scFv-Fc format
[2] = target: cyno MSLN (Macaca fascicularis); test: BLI (Octet), bsAb in 1+1 Fab-scFv-Fc format
[3] = target: human mesothelin (MSLN) (human) (UniProt Q13421); test: BLI (Octet), bsAb in 1+1 Fab-scFv-Fc format

B1: XENP32938 (bispecific antibody, part only; not given: anti-CD3 scFv-Fc arm, constant regions, V domains shown, not shown: another chain or arm of the molecule; a dimerising Fc or GST; small tags and cut ends)
VH: QVQLVQSGAEVKKPGASVKVSCKASGYTFTSYWMHWVRQAPGQGLEWMGMIHPNSDNTIYYYKFQGRVTMTVDKSISTAYMELSRLRSDDTAVYYCAIIITPVVPKFDYWGQGTLVTVSS
VL: DIVMTQSPDSLAVSLGERATINCKASHDVGTSVAWYQQKPGQSPKLLIYWASTRHTGVPDRFTGSGSGTDFTLTISSLQAEDVAVYFCQQYYSYPLTFGAGTKLEIK
Kd [1]: 16.2 nM | Response [1]: 0.169 | koff [1]: 0.0103 s⁻¹ | kon [1]: 635000 M⁻¹ s⁻¹

B2: XENP32939 (bispecific antibody, part only; not given: anti-CD3 scFv-Fc arm, constant regions, V domains shown, not shown: another chain or arm of the molecule; a dimerising Fc or GST; small tags and cut ends)
VH: QVQLVQSGAEVKKPGASVKVSCKASGYTFTSYWMHWVRQAPGQGLEWMGWIHPNSDNTIYYEKFQGRVTMTVDKSISTAYMELSRLRSDDTAVYYCAIIITPVVPKFDYWGQGTLVTVSS
VL: DIVMTQSPDSLAVSLGERATINCKASHDVGQSVAWYQQKPGQSPKLLIYWASTRHTGVPDRFTGSGSGTDFTLTISSLQAEDVAVYFCQQYSSYPLTFGAGTKLEIK
Kd [1]: 90.4 nM | Response [1]: 0.202 | koff [1]: 0.0383 s⁻¹ | kon [1]: 424000 M⁻¹ s⁻¹

B3: XENP32940 (bispecific antibody, part only; not given: anti-CD3 scFv-Fc arm, constant regions, V domains shown, not shown: another chain or arm of the molecule; a dimerising Fc or GST; small tags and cut ends)
VH: QVQLVQSGAEVKKPGASVKVSCKASGYTFTSYWMHWVRQAPGQGLEWMGWIHPNSDNTIYYEKFQGRVTMTVDKSISTAYMELSRLRSDDTAVYYCAIIITPVVPKFDYWGQGTLVTVSS
VL: DIVMTQSPDSLAVSLGERATINCKASHDVGTSVAWYQQKPGQSPKLLIYWASTRHTGVPDRFTGSGSGTDFTLTISSLQAEDVAVYFCQQYSSFPLTFGAGTKLEIK
Kd [1]: 246 nM | Response [1]: 0.136 | koff [1]: 0.0816 s⁻¹ | kon [1]: 332000 M⁻¹ s⁻¹

B4: XENP32943 (bispecific antibody, part only; not given: anti-CD3 scFv-Fc arm, constant regions, V domains shown, not shown: another chain or arm of the molecule; a dimerising Fc or GST; small tags and cut ends)
VH: QVQLVQSGAEVKKPGASVKVSCKASGYTFTSYWMHWVRQAPGQGLEWMGWIHPNSDNTIYYEKFQGRVTMTVDKSISTAYMELSRLRSDDTAVYYCAIIITPVVPKFDYWGQGTLVTVSS
VL: DIVMTQSPDSLAVSLGERATINCKASHDVGTSVAWYQQKPGQSPKLLIYWASTRHTGVPDRFTGSGSGTDFTLTISSLQAEDVAVYFCQQYSSIPLTFGAGTKLEIK
Response [1]: 0.0022

B5: XENP32560 (bispecific antibody, part only; not given: anti-CD3 scFv-Fc arm, constant regions, V domains shown, not shown: another chain or arm of the molecule; a dimerising Fc or GST; small tags and cut ends)
VH: QVQLVQSGAEVKKPGASVKVSCKASGYTFTSYWMHWVRQAPGQGLEWMGMIHPNSDNTIYYEKFQGRVTMTVDKSISTAYMELSRLRSDDTAVYYCAIIITPVVPKFDYWGQGTLVTVSS
VL: DIVMTQSPDSLAVSLGERATINCKASQDVGTSVAWYQQKPGQSPKLLIYWASTRHTGVPDRFTGSGSGTDFTLTISSLQAEDVAVYFCQQYSSYPLTFGAGTKLEIK
Kd [2]: 1.2 nM | Response [2]: 0.948 | koff [2]: 0.000762 s⁻¹ | kon [2]: 634000 M⁻¹ s⁻¹ | Kd [3]: 0.633 nM | Response [3]: 1.03 | koff [3]: 0.000383 s⁻¹ | kon [3]: 605000 M⁻¹ s⁻¹
